This passage reports EGFP donor fluorescence lifetime and FRET efficiency results from paper PMC8861016.

In the assay the target is LRP6mcherry2 (UniProt O75581). Put plainly: FRET or BRET; FRET-based FLIM (EGFP donor lifetime) on live HEK293T cells stably expressing CD44EGFP and LRP6mcherry2, induced with Wnt3a CM 1 h before analysis. In general terms: In BRET a luciferase serves as donor, and the signal depends on an acceptor being close.
Chain of UniProt O75581 (O75581 20-1613): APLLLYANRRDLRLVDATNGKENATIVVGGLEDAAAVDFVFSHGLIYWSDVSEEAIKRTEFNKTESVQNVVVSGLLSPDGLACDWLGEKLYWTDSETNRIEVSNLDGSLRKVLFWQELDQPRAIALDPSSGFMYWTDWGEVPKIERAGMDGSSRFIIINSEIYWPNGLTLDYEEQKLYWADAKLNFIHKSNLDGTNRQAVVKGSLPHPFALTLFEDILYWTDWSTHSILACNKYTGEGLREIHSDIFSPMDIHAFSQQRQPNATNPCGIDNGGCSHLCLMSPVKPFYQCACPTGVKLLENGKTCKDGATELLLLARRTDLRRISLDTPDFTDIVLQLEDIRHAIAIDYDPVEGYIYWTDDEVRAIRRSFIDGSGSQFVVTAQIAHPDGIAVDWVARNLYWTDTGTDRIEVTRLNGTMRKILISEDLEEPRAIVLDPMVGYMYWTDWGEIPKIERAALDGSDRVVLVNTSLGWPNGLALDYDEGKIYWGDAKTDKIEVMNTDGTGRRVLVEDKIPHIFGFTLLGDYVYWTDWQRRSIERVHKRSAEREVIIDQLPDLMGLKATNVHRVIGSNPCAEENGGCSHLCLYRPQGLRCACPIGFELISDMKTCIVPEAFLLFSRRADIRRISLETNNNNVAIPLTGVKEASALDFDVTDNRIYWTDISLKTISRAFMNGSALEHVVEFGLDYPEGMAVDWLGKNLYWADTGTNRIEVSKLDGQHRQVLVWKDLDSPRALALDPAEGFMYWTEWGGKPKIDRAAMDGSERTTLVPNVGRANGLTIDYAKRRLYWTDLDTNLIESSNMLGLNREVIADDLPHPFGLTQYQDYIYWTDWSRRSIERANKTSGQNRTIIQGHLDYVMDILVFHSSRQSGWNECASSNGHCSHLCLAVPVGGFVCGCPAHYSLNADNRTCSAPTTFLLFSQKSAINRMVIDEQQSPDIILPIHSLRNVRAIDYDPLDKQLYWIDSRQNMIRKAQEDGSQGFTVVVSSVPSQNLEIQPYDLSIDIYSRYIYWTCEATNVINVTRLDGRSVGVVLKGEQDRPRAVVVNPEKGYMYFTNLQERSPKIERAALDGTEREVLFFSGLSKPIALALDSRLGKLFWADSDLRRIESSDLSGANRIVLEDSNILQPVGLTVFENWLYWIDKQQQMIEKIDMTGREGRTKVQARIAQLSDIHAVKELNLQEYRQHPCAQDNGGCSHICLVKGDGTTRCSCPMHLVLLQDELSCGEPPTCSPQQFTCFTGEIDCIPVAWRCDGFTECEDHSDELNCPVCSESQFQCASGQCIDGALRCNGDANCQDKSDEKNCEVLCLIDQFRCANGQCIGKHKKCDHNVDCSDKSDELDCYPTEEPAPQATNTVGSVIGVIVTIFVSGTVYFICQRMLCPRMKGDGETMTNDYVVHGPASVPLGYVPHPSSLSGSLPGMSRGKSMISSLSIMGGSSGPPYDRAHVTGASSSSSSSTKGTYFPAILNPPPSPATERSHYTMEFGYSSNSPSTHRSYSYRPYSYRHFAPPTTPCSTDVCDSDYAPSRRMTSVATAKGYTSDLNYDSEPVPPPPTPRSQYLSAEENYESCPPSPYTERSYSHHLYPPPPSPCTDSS

Regarding “CD44EGFP (from UniProt P16070 21-742) (receptor)”, the EGFP donor fluorescence lifetime was 2450 ps and the FRET efficiency amounted to 7.5%.
